According to a protein production outcome set (Wang et al. 2014):

Assay: label from the status in PepcDB records

Row | Sequence | protein production
1 | MIISNKSPISINNDPWEAYNDILEHNQLTLSNIEFTTTNLCNMRCSHCAVGYTLQTKDPDPLPMDIIYRRLDEIPNLRTLSITGGEPMFSKKSIKNVVKPLLKYAKHRGIYVQMNSNLTLPQDRYLDIAEY | failed
2 | MIEENYKEERYTERVNQGGVWGSFKRKFLSWADDDAGYDEEKDYENLLNNEKLQKKLREWRRTKNQQNNNKTFNTNDTNSFETIQSVIAEQLNVDAVQVTPEAEFVKDLGADSDVVELIMALEEKFGIEIPDEQAEKIVNVGDVMRYIEKQLI | failed
3 | MPKVSVVTGFYNRCEHLERTIESILNQTYSDFELIVFDDASTDGTASRLLELKEKYDDPRFRFIIHEENKGFVKGLSEAISGAKGQYIAVQGSGDVSLPRRLELQVEFLDANPSVGAVGGAIYNIQEDTGTRNPQRFEKPIATFDDLLTSNPFTHGEVMYRLDLYKSIGGYRSGFTFAQDRDLWLRMAKKADLGIIPDFLYHRYTLLDGVSFVPDKTIRQRCFSEAAVRLALMPEEEGALAYSRLEAEGPTAVVPIADRAVQKFVPKAAIRLCLYGAPETGLHMARDYIQNPLRRTIVVVLISIYSSRLIKPLQDILYKSIFKGVSISKPIKSSLVKFTRRIQGK | failed
4 | MEYILYISRFLYRIRWWLLIGTAIITFAVYYFGKRMIGKTYNVEATLYTGAASGYNLEGGNNKVDWATTQNAMDNLMNIIKAESTLKRVSIRLYARSLIKGNPKEDNEFIKASNYNRIYEHLKNSPNGKEILSLIDKNSEDKTVANFFNYLRPTQANYLYGVFYYNLPYYSYNDLRAIRVARKGASDLIEISYTASDPGIAYNTIDILTKEFVNEYSAIRYGETDKVIEYFKSELQRIGKELRLKEDSLTQYNVEKRVINYYDETKEIAAINKEFELREQNVLIAYNSAKAMLNELEKQMGSNAKHVINNLQFLDKLNEAASLTGKISEMETISSDHQNQEASLQEYKNRLNQTRKELSELSNKYVENKYTKEGIAKENIIEQWLEVTMQYEKAKSDLQIIQQSRIDLNEKYRQFAPVGSTIKRQERNITFIEQNYLSVLKSYNDALMRRKNLEMTSAALKVLNAPAYPISAMPTPLKKMVMAACAGTFLFILGFFLILELLDRTLRDSIRTRRLIGLPMLGAFPKDSILEYHNHVEESKSIATKQLSNSILRFCQQKKEGLPYIINFISTEGGEGKSYVIEALKKYWNSIGLKTKVITWKSDFRIDSREYNLAKSITDLYTSEEEDILIVEYPNLREASISLELLQEANLNILVARADRGWKETDKLLSEKLSQQVGKTPLYVYLTHASRNVVEDYTGMLPPYTLWRKIVYRLSQLALTESIFTFTKRKKQPATSGDEDDE | failed
5 | MEMMQDSFQVHRIPQSKYVDGVRWLPQASALNRFFATASYDADCDSSSIEIQSLDPNPRGNHNTNPLIESLSSWTSPSRVSSLEVAGNGGGGGSFKPMVSAATSSGSLHVLMIDLVEGAAIEEFYAAEGERFHVGRVEGVDWREGGECVTVGEDGRVNVVKIVNGEGLRYRKVFDGNGLVAYRAVKWASPTEFVTGGYGFGLQLWDQRKSGEAVSQLKGNWFQGKTSAIVHSIDIHPSRKHTCIAGGSSGTVFAWDLRWPQQPIVLSGVGASENINNPLSESEVWEVQYDSYTKSNVSSSRILPVMTCSEDGILGIIEQGEEPIELLAEPCAINSFDIDRQNPQDVICSLEWESIAVFSRP | failed
6 | MAVSPDDPLILVGRVAGGFGVRGEVRITTYTEDPLSIAGFKALKRQDGSPALTIASARKTKDGVVCRCPGVETKEAADALRGLRLYVPRSALPEPDDDEFYLTDLVGLTVRHIQTDQLLGRVKSVQNFGAGDILEITPDLGGPTWYLPFTRAAVPEVRVSEGLILADPPALVGDHEGPEEKGLDENEELGDRDLEHHHHHH | failed
7 | MPNPRRIVFGDVHGHFDALTALFEAIAPNERDGVYFVGDLIDRGPESAKVVDFVMENKYHCLLGNHEQMMLDAVGGFNFSPQLLHAWIYSGGKSTLESYEHQIPQSHVDWMRNLPLYLDLGDVWLVHAGVDPRLPIEEQGEAQFCWIRDEFHRYPYPYFANKLIITGHTITFTFANVEPGKLVSGPGWLDIDTGAYHPKSGWLTALELNNQEVYQAHIFTNEVRRLPLEDAVVPLPPQNLHRLEHHHHHH | failed
8 | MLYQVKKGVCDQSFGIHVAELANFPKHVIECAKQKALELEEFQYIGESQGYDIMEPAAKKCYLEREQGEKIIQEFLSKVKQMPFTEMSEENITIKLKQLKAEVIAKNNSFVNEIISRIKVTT | failed
9 | MRSTTSTLMLIKKTAIAVSLAVGSMVISGCDTNEVAKEISQPTIRPALTEIVSPSANAQLRFNGVVRSAQRADLAFRMSSRVISVLVDEGQQVKKGQLLAQLDPRDAQTALESARVEYKNSKAEYTRGKAIYEKSQAIAKSDLDTLTTRYQLAKNRLDEAQRQLEYTQLHAPFDGVIGKKMIDNHVQIQANSPVLTVHNVDDLEVLINIPDSVMLGDLKGSKALAQISALRNETFPLVLSTYGTQADPITQTYPVVLTFEDLRGFNVLPGMTVKVVPVYSDEQDQASLLITVPLTAVVPDNQGGQFVWVVTQENKVQKRIISAGTLVSNRIVINDGLQTGERIITAGASSLKEGMEVRPYTDTLSSQVEK | failed
10 | MAHKKGLGSTRNGRDSQAKRLGVKRYEGQVVRAGNILVRQRGTRFKPGKNVGMGRDFTLFALVDGVVEFQDRGRLGRYVHVRPLA | not failed
11 | MKSLYQMNHIGHPFMYPKMDITKMNKTNNQNIPNKAHNPNNSSNMNTTKKSYGTSLNYIKKENSSKNSIYNNYEYLDASHLEMLDLNKNIKNILPKPMKPSLDLESLCKETTSTMKKSKMHCMKSGENQNKNVKHFYEMGTPQIIGTYIQPLHHNTNSFNQNNFPKNHMFPLLPSSPFFQPPNFRTNLTQASSTFIPLPHANKSTNIYGMPSYLIPENKPQNLTVTVVPNKDKDSIEKEAKHLKALLDSSSKGIVNSTPDYQKIQPSTLSNYNDKESDFSFGKNDNYEHAEYSEQNCNDENDTENNYNSFVNEFYDPHNSISYNNVNEFLKNSNQKNQQHAFRLESNEEVARKVHKEFTYPKGTSLNKINILNQNYKEEGEQQQENETKNNMNMQERDEERQTMKKDSSIPKRTQLSKKKEHNNNNIVLKKHEPSTCFKNPKTYINIRLGKPKKLYITNSSDPIDKKLSEWHNTHNSQIGWKKYRRGVYTFGKTEVILSLVHDKIIVKKINGKHIKDNLLTVEKFVSLNELYEIQQEENDNMLKKRGVKFFNF | failed
12 | MGHHHHHHSHMGRGKGPAAEEPLSLLDDMNHCYSRLRELVPGVPRGTQLSQVEILQRVIDYILDLQVV | not failed
13 | MKRDVLYNRIILSVFLLSLVSCVAIYYAQQTNQYNTNFLGMQLVFLAIGTLTCFGVSRLPVEFLRHHAIWLYVIMVITLLGILIPNPLVQNINGATRWYRFAGLSFQPSEVVKSIFIFVLAHFAVKYQAQKWKQLGILTVLTGIVLLLIMKQPDLGTTIVYGVTALAIILLAIKSTKLMVGIITLILTAATVGMYVVVYHISLLEKIGFHAYQFSRIQTWLDPTTDPDAVYQLNLSMKAVGSGMMTGSSGTNAYIPESHTDMIFSTIGHQFGFVGVSLLLILFMVLIHQLIMAALLMKNTFSSLVLAGFAVSFAFNIFENIGMTVGLMPLTGIPLPFISYGGSAVLGNFIAVGVVLAIIRSDADLIEEK | failed
14 | MRVDIWSDVVCPFCYIGKKRLEHVAAEAGIELDVHWHSFELDPDAPTSHDTSNTERLAKKYGRTFEEMQEMQQNIASMAAQEGIDFQWQKANSGNSFNAHRIIHLAQSKGLGNEAEEAFFHAYMTEGLAIGEREVVEEIASRIGLDHAEVEFVLDSNELSDFVRHDEKIAHEQLNISGVPFFVFDQKLALSGAQPKEVFLQVLQKALTQRENDAVAEASSDAVCSDDSCDIPQKS | failed
15 | MDKRLIVMHNLSRHYGKQYWWQQNSLEDWLMMILIQRTSSKNVAQAVHNLQPYMQVDRLMALSQSELETLVRPAGFYRQKAQRIHDLLTWFVAQGGSFEKIAEKPAAELRETLLALNGIGNETADVMLMYTFGKKTFVADTYAMRLFNRLGFGPYTNYAKMQADFAPALDQITLDEAREWHALIDEHGKTQVRHAYDDRFLLQPDLTEAAWPPEAVQVEPPHDDPGSGKWRHAADPSAMTHK | failed
16 | MLSYDIEVLKIINDEDNISQRRLAEMLNISLGKINSLLKELLTKEYIVKIDIDKRNVKYELTEAGIALLENSLDKVKSTKLSIHKHKFHKVKQAVILGAGGKGDFGKPAGFLELEEFRIIDRIIDILKSNGIEKIVIVNGYKKEYYEELAEKDSTIFCVTNSNYKWTGTMSSLALAKEYIDDDFILVENDLVFESRAVEQIIKNDNRDCVLITNESGSGDEAFVEIRDGYLFKMSKDVHQFNKIDGEMIGISKISYKLFKMMLEEFKHNINPYMNYEYTMLDVARNYKVGYEKINDLVWGEIDNKDQYEKVKKHIIPMIRRKEMQYKIDQVKSAIVNGLKVSEEEVKEIVPVGGMTNKNYKAFVNDKAYIVRIPGLGTSSMINRRDEMINSKLAADEGIDAKILFFDEESGVKIAELIEGAETLNPATAKKKENMELVVGALRTLHNSEIKMENRFNVFEKIEDYESLVKKVSGTLFEDYYEIKTRVLKLEKVLEDNGMEIKPCHNDTVPENFVKDINERMYLIDWEYSGLNDPMWDLAAHSIECDFSEDDEELFLNLYFNNLIEDKHKIRILVYKICQDFLWSIWTILKEAQGDDFGTYGIDRYNRGKKNLELLDKILMGQ | failed
17 | MRETRPNPQEILKEINKNEKDSKRGKLKIFFGYAAGVGKTYAMLEAAHSAIAMGLDVVVGYIEPHTRPETLALLEGLELLPNLEVAYRGLVLREFNLDLALSRKPDLIIVDELAHTNVKGLRHEKRYSDIEELLDAGIDVYTTLNVQHIESLNDVVASITNIVVKERIPDRIFKNAFQIELIDVDPSVLIERLNSGKIYVKNQAKKALKNFFIRENLVALRELALRETANSVNKEVMINKNENFYHTNEHILVCLSSSPSNSKVIRTSARMAEAFHGKFTALFVETTSSRELKEGNIERLREHVKLAKDLGAKIETVYGDDVAYQVSEFSKISSVSKVIIGRTKKKRHLWSRFGIVDRLIELAPELDVYIIPDEEENVEDINKICLNKEKITIKDSLKTLGILIITIIISLFFENLGFSEANIIIVFILGVLIIAKETYGRIYGVISSLFSVLLFNFFFTEPKFTFNAYDSSYIFTFFIMLVSALITSTLTNKVKVQANKSAITAYRTNILLESSSELGRCSDLEEIILKSQEQVSRLVKKPVVVYKAKNSQIENIYNYKFKDGSELSDKYINLDEQGVVLWVINNRKYAGKGTETLPGAKAMYIPVLGQEDIGIVIGIILEEGEELEEGEKSLLIAMINQVSFVIDNYILEEAKKQALMQAENEKFKANLLRAVSHDLRTPLTSISGSASLLLNNNFDEETKRKLTLDIYDDSIWLINLVENLLSVSRIDNGNINLNREAQLVEEIILEALQHVNRNACDYNIEIDLKDELLMVNADVRLIIQVIINIVDNAIKYTEKGSNIKISAFSKGDNVIIEIADNGVGISKEDKEHIFDMFFTSKKNISDSRRGLGLGLALCKSIINVHEGEIYVRDNKPRGTIIGFSLQRFEVNNNETSNFSY | failed
18 | MLKVFAMEMKDAKLYGGIGAILQLVGPFVPSIGFILALVGLVLVFLAVKTISEKSGDEGIFNNYLKAFIAQILGIIIFVGIIVATIGTAILKGGMGKLANPMEFMSLIGTILLGFIILWIFYTVAGYFKKKSYENSQYTGTDMFKTAGLLFFIGAILIILGIGVLIILIAEILEIVAFFSLPETSESAPVSA | failed
19 | MSDSIVGIPREDHQTFLYNPFTSQRYELPPLTIEDPHLKSVLRYGVLTGDPREDNTYACLVADSLHANLMAIGNTHPPSLHLYYVAKRNGEWDQNWSVTRIPTHNLPVVGSTIDSISPSADKISIIGWGHSFDFTFQSQDWNVTNINYTMEWNPFHGQSFDQIKHRLQIDPQTLDIIGTKTDRERVKNRIWFVINQIISHIDGVWVEVRA | failed
